Results: patent US20240101645A1 (HENRY M JACKSON FOUNDATION FOR THE ADVANCEMENT OF MILITARY …, published 2024)

B1: COV_2123 (antibody, V domains shown)
VH: EVQLVESGGGVVQPGRSLRLSCAASGFTFSSYAMHWVRQAPGKGLEWVAVLSYDGSNKYNADSVKGRFTISRDNSKNTLYLQMNSLRVEDTAMYYCARDGVSVTMVRGVIGPLCDYWGQGTLVTVSS
VL: not shown
notes: human IgG1
B2: COV_2035 (antibody, V domains shown)
VH: QVQLVQSGAEVKKPGASVKVSCKVSGYTLPELSIHWVRQAPGKGLEWLGGFDPEDGKIIYAQKFQGRVTMTEDTSTDTAYMELSSLRSEDTAVYYCATSPAVVERGWFDPWGQGTLVTVSS
VL: QSALTQPPSASGSPGQSVTISCTGTSSDVGGYNYVSWYQQHPGKAPKLMIYEVSKRPSGVPDRFSGSKSGNMASLTVSGLQAEDEANYYCSSYAGSKRVFGGGTKLTVL
notes: human IgG1
B3: COV_2037 (antibody, V domains shown)
VH: QVQLVQSGAEVKKPGASVKVSCKVSGYTLTELSMHWVRQAPGKGLEWMGGFDPEDAETIYAQKFQGRVTMTEDTSTDTAYMELSSLRSEDTAVYYCATAGAITGTPTNYSYYYGMDFWGQGTTVTVSS
VL: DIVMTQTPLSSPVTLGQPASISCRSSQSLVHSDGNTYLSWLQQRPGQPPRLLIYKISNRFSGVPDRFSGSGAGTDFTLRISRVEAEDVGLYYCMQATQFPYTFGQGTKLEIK
notes: human IgG1
B4: COV_3129 (antibody, V domains shown)
VH: QVQLQQWGAGLLKPSDTLSLTCAANGGGSFSGYYLGYIRQSPGKGLEWIGEINHNGGTNYNPSLKSRVTISGDTSKNQFSLKLSSVTAADTAIYYCARSRDSSLGDAVWYEYWGQGTLITVSS
VL: EIVLTQSPATLSLSPGERATLSCRASQSVDIYLAWYQQRPGQAPRLLISDASKRATGVPARFSGSGSGTDFTLTINSLEPEDFAIYYCQQRRDWPINFGQGTRLEIKR
notes: human IgG1
B5: COV_2215 (antibody, V domains shown)
VH: EVQLVESGGGLVKPGGSLRLSCAASGFTFSHAWMSWVRQAPGKGLEWVGRIKSKTDGGTADYAAPVKGRFTISRDDSKNTLYLQMNSLKTEDTAVYYCATIRYYYDSSAYLNDAFDIWGQGTMVTVSS
VL: SYELTQPPSVSVSPGQTARITCSGDALPKKYAYWYQQKSGQAPVLVIYEDSKRPSGIPERFSGSSSGTMATLTISGAQVEDEADYYCYSTDSSGNHRVFAGGTKLTVLG
notes: human IgG1
B6: COV_2103 (antibody, V domains shown)
VH: EVQLVESGGGVVQPGRSLRLSCGASGFTFSSYGIHWVRQAPGKGLDWVAVIWHDGSQKYYGDSVKGRFTISRDNSKNTLYLQMNRLRAEDTAVYYCARDSGDDYDSSGYPIGNAFDLWGQGTMVTVSS
VL: DIQMTQSPSTLSASVGDRVTITCRASQFINSWLAWYQQKPGKAPKLLIYKASSLETGVPSRFSGSGSGTEFTLTISSLQPDDFATYYCQQYNTYSFTFGPGTKVDIK
notes: human IgG1
B7: COV_2054 (antibody, V domains shown)
VH: EVQLVESGGGVLQPGRSLRLSCAASGFTFNNYALHWVRQAPGKGLEWVAVISYDGSSKYYADSVRGRLTISRDNSRNTLYLQMNSLRPEDTAIYYCARDGDGLWLGESFYFDDWGQGTLVTVSS
VL: DIQMTQSPSTLSASVGDRVIITCRASQSISSWLAWYQQKPGKAPKLLIYEASTLQSGVPSRFSGSGSGTEFTLTISSLQPDDSATYYCQQYNSYPVHFSQGTKLEIK
notes: human IgG1
B8: COV_2025 (antibody, V domains shown)
VH: QVHLVQSGAEVKKPGASVKVSCKVSGYTLVELSVHWVRQAPAKGLEWIGGFDPEDGETIYAQKFQGRVTMTEDTSTDTAYMELTNLRSEDTAVYYCVTSQPFVSPNWFDPWGQGTLVTVSS
VL: QSALTQPASVSGSPGQSITISCTGTSRDVGAYNYVSWYQQHPGKAPKLMIYEVTTRPSGVSNRFSGSKSGNTASLTISGLQAEDEADYYCSSYTGSRTLVFGTGTKVTVL
notes: human IgG1
B9: COV_2004 (antibody, V domains shown)
VH: QVQLVQSGAEVKKPGASVKVSCKASGYTFTGYYMHWVRQAPGQGLEWMGRINPSSGGTNYAQKFQGRVTMTRDTSISTAYMELSSLRSDDTAVYYCATDGDDGENWFDPWGQGTLVIVSS
VL: DIQMTQSPSSLSASVGDRVTITCRASQGISSWLAWYQQKPEKAPKSLIYAASSLQSGVPSRFSGSGSGTDFTLTISSLQPEDFATYYCQQYNSYPYTFGQGTKLEIK
notes: human IgG1
B10: COV_2039 (antibody, V domains shown)
VH: QVQLVQSGAEVKKPGASVKVSCKVSGYMLIELSMHWVRQAPGKGLEWMGGFDPEDAETIYAQEFQGRVTMTEDTSTDTAYMELSSLRSEDTAVYYCTTGPAVTNRPADYWGPGTLVTVSS
VL: QSVLTQPPSVSGAPGQRVTISCTGSSSNIGASYDVHWYQQLPGTAPKLLIYANSNRPSGVPDRFSGSKSGTSASLAITGLQAEDEADYYCQSYDSSLSYSVVFGGGTKLTVL
notes: human IgG1
B11: COV_3069 (antibody, V domains shown)
VH: EVQLVESGGGLVKPGGSLRLSCAASGFTFGSYTMNWVRQAPGKGLEWVSSIDTTSSSIYYADSLKGRFAISRDSAKNSLYLQMNRLRAEDTAVYYCARGNGHSYDSSGYHYGMYFDYWGQGTLVTVSS
VL: DIQMTQSPSTLSASVGDRVTITCRASQSISRWLAWYQQKPGKAPKLLIYEVSSLENGVPSRFSGSRSGTEFTLTISSLQPDDFAIYYCQQYNTYSRTFGQGTKVEIKR
notes: human IgG1
B12: COV_2137 (antibody, V domains shown)
VH: EVQLVESGGGLVKPGGSLRLSCAASGFTFSSYTMNWVRQAPGKGLEWVSSISSGSSFIYYADSLRGRFTISRDNAKNSLYLQMNSLRAEDTAVYYCARAPEPQSVIYAYWYFDLWGRGTLVTVSS
VL: QSALTQPASVSGSPGQSITFSCTGTSSDVGSYNLVSWYQQYPGKAPKLMIYEVNKRPSGVSNRFSGSKSGNTASLTISGLQAEDEADYYCCSYAGSSTFYVFGTGTKVTVLG
notes: human IgG1
B13: COV_2008 (antibody, V domains shown)
VH: QVRVVQSGAEVKNPGASVKVSCKVSGYTLTELSIHWVRQAPGNGLEWMGGFDPEDGETIYAQKFQGRVTMTEDTSTDTAYMELSSLRSDDTAVYYCATAGAITGTPRNFYYYYGMDVWGQGTTVTVSS
VL: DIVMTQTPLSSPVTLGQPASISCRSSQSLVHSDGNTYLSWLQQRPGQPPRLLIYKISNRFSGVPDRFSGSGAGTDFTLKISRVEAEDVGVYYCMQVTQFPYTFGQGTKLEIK
notes: human IgG1
B14: COV_2028 (antibody, V domains shown)
VH: QVQLQESGPGLVKPSGTLSLTCVVSGGSISSSNWWSWVRQPPGKGLEWIGEIYHSGSTNYNPSLKSRVTISVDKSKNQFSLRLTSVTAADTAVYYCARGWNYDYWGQGTLVTVSS
VL: QSALTQPASVSGSPGQSITIACTGTSSDVGSYNLVSWYQQHPGKAPKLMIYEVSKRPSGLSNRFSGSKSGNTASLTISGLQAEDEADYYCYSYAGSSTWVFGGGTKLTVL
notes: human IgG1

How the values were obtained:
[1] = target: SARS-CoV-2 S on pseudovirions (Wuhan Hu-1 / IL1/2020, last 18 amino acids removed) (SARS-CoV-2, UniProt P0DTC2 14-1273); assay: cell-based or functional assay
SARS-CoV-2 NTD (1-290) [2] = target: T1, SARS-CoV-2 NTD (1-290) (SARS-CoV-2, UniProt P0DTC2 14-290); assay: BLI, 1:1 model
T1 construct: range 1-290

[3] = target: T2, MERS-CoV spike antigens (bead panel) (MERS-CoV, UniProt K9N5Q8 18-1296); assay: multiplex bead assay
T2 sequence: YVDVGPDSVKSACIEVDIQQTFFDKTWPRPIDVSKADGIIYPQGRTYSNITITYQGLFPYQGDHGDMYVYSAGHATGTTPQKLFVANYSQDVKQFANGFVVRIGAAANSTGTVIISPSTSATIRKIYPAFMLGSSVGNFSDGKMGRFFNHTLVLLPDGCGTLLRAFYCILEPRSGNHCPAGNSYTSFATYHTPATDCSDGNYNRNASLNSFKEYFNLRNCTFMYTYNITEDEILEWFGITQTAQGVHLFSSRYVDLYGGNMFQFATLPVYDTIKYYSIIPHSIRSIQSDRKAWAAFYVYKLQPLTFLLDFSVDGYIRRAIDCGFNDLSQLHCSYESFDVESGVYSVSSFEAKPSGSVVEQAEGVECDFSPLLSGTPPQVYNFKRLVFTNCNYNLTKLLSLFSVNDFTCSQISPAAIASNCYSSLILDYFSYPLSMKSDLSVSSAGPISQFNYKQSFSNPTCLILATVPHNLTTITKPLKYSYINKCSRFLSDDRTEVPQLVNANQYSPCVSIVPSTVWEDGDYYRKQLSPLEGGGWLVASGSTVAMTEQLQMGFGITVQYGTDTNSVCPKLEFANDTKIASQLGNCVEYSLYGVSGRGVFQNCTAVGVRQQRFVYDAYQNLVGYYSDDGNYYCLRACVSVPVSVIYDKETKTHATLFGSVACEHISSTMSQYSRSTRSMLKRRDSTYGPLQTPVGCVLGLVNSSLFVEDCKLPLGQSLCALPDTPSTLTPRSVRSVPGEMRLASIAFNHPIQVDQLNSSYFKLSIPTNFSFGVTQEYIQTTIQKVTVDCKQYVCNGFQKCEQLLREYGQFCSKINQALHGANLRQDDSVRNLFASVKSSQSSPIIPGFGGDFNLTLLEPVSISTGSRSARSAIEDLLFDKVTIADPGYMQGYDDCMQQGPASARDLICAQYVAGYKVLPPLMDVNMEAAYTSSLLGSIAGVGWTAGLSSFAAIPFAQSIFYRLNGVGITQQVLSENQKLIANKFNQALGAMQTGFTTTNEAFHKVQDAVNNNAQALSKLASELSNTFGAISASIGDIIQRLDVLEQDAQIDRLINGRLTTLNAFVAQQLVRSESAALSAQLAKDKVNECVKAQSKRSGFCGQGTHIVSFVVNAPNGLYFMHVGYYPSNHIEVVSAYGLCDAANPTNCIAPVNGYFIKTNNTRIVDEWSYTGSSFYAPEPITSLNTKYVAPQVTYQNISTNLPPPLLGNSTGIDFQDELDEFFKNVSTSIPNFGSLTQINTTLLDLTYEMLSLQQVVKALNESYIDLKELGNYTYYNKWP

SARS-CoV-2 NTD (1-290) [4] = target: T1, SARS-CoV-2 NTD (1-290); assay: multiplex bead assay

Row | Binder | Kd (SARS-CoV-2 NTD (1-290) [2]) [pM] | binding result [3] | other results
1 | B1 | – | – | IC50, pseudotyped neutralization assay [1]: 4 ng/mL
2 | B2 | < 1 | – | –
3 | B3 | < 1 | – | –
4 | B4 | – | no binding | –
5 | B5 | – | no binding | –
6 | B6 | < 1 | – | –
7 | B7 | < 1 | – | –
8 | B8 | < 1 | – | IC50, pseudotyped neutralization assay [1]: 9 ng/mL
9 | B9 | < 1 | no binding | –
10 | B10 | < 1 | – | IC50, pseudotyped neutralization assay [1]: 6 ng/mL
11 | B11 | – | no binding | –
12 | B12 | – | no binding | binding result (SARS-CoV-2 NTD (1-290) [4]): binds
13 | B13 | < 1 | – | –
14 | B14 | 40.7 | – | –
